Laboratory results: paper PMC10547724, “Structural insights into the conformational changes of BTR1/SLC4A11 in complex with PIP2” (Nature Communications, 2023)
Where a chain is given by its changes, count along the chain named. Names and notes keep the numbering of the source.

B1: BTR1 (SLC4A11), full-length human, wild type (natural protein, UniProt Q8NBS3-1 1-891, looked up)
chain: MSQVGGRGDRCTQEVQGLVHGAGDLSASLAENSPTMSQNGYFEDSSYYKCDTDDTFEAREEILGDEAFDTANSSIVSGESIRFFVNVNLEMQATNTENEATSGGCVLLHTSRKYLKLKNFKEEIRAHRDLDGFLAQASIVLNETATSLDNVLRTMLRRFARDPDNNEPNCNLDLLMAMLFTDAGAPMRGKVHLLSDTIQGVTATVTGVRYQQSWLCIICTMKALQKRHVCISRLVRPQNWGENSCEVRFVILVLAPPKMKSTKTAMEVARTFATMFSDIAFRQKLLETRTEEEFKEALVHQRQLLTMVSHGPVAPRTKERSTVSLPAHRHPEPPKCKDFVPFGKGIREDIARRFPLYPLDFTDGIIGKNKAVGKYITTTLFLYFACLLPTIAFGSLNDENTDGAIDVQKTIAGQSIGGLLYALFSGQPLVILLTTAPLALYIQVIRVICDDYDLDFNSFYAWTGLWNSFFLALYAFFNLSLVMSLFKRSTEEIIALFISITFVLDAVKGTVKIFWKYYYGHYLDDYHTKRTSSLVSLSGLGASLNASLHTALNASFLASPTELPSATHSGQATAVLSLLIMLGTLWLGYTLYQFKKSPYLHPCVREILSDCALPIAVLAFSLISSHGFREIEMSKFRYNPSESPFAMAQIQSLSLRAVSGAMGLGFLLSMLFFIEQNLVAALVNAPENRLVKGTAYHWDLLLLAIINTGLSLFGLPWIHAAYPHSPLHVRALALVEERVENGHIYDTIVNVKETRLTSLGASVLVGLSLLLLPVPLQWIPKPVLYGLFLYIALTSLDGNQLVQRVALLLKEQTAYPPTHYIRRVPQRKIHYFTGLQVLQLLLLCAFGMSSLPYMKMIFPLIMIAMIPIRYILLPRIIEAKYLDVMDAEHRP
notes: human BTR1 (SLC4A11), full length, residues 1-891 (NTD 1-307, TMD 336-891), amplified from human HEK293 cDNA; GFP and His tag removed with TEV protease before gel filtration; Residues 1-103, 308-335 and 888-891 were not built in the model; also called NaBC1; bicarbonate transporter-related protein-1; source: HEK293F cells, baculovirus (BacMam) infection, purified (Ni-NTA, TEV cleavage, gel …)
B2: BTR1 (SLC4A11) R125H, full-length human, pathogenic mutant (natural protein, UniProt Q8NBS3-1 1-891, looked up)
chain: B1 chain with R125H
notes: human BTR1 (SLC4A11), full length, with the disease-associated mutation R125H made in the PBM-SLC4A11 plasmid; GFP and His tag removed with TEV protease before gel filtration; also called BTR1-R125H; BTR1_(IF/R125H); source: HEK293F cells, baculovirus (BacMam) infection, purified (Ni-NTA, TEV cleavage, gel filtration) in GDN micelles; not shown: GFP, C-terminal, cleaved; His8, C-terminal, cleaved

Target: the molecule itself
Assay: cryo-EM structure; single-particle cryo-EM of protein purified in GDN micelles (150 mM NaCl, 20 mM HEPES pH 7.4); wild type apo or with NH4Cl (outward-facing), R125H mutant (inward-facing; pH not named for it)

| Protein | stoichiometry N |
| --- | --- |
| B1 | 2 |
| B2 | 2 |
